Measurements as given in patent publication USRE49026.

Biological target: recombinant human IL-23R/Fc chimera (human) (UniProt Q5VWK5)
Experiment: ELISA of conditioned media on coated IL-23R-Fc, anti-p40 detection

recombinant human IL-23R/Fc chimera (human), sequence (Q5VWK5 24-353 limits assumed, change not shown): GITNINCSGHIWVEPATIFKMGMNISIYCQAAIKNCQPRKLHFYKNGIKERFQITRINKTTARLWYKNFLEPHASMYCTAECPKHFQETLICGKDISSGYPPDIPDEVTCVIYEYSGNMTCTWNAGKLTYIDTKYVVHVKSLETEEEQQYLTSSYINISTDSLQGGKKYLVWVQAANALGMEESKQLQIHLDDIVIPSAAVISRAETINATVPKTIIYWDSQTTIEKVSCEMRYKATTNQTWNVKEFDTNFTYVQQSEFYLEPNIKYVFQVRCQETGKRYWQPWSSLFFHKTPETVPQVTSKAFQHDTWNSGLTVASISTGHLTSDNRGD

reduction of binding compared to WT: 50%
Substance: W2 IL-23 cytokine (p19 W2 to G mutant + p40) (from UniProt Q9NPF7 20-189; P29460 23-328) (ligand)
